Consider two proteins from paper PMC8674365, “PP2A phosphatase inhibition is anti-fibrotic through Ser77 phosphorylation-mediated ARNT/ARNT homodimer formation” (Scientific Reports, 2021).

Data set [1] concerns the molecule itself. The data set is described as follows: native MS; liquid native MALDI mass spectrometry of endogenous ARNT pulled down from total kidney lysates of LB100-treated UUO mice; eluted in 0.3% TFA, mixed with ammonium acetate buffer (100 mM, pH 9), glycerol.
Data set [2] concerns the molecule itself. The data set is described as follows: immunoprecipitation and MALDI-TOF mass spectrometry; endogenous ARNT pulled down from extracts of LB100-treated MCT cells with ARNT antibody, eluted with 0.3% TFA, sinapinic acid matrix, linear positive mode.

B1: Endogenous ARNT of mouse kidney (UUO-challenged C57BL/6 mice) (natural protein)
chain: not shown
notes: Aryl hydrocarbon receptor nuclear translocator (ARNT), endogenous in kidney tissue of C57BL/6 mice; source: endogenous, total kidney lysate of mice, immunoprecipitated with ARNT antibody
On to B1, for which the “stoichiometry N” value in data set [1] was found to be 2.

B2: Endogenous ARNT of mouse tubular epithelial cells (MCT) (natural protein)
chain: not shown
notes: Aryl hydrocarbon receptor nuclear translocator (ARNT), endogenous in the murine proximal tubular epithelial cell line MCT; source: endogenous, MCT cell extract, immunoprecipitated with ARNT antibody
As for B2, the “stoichiometry N” value in data set [2] turned out to be 2.

Usually stoichiometry N stands for the number of molecules, sites or subunits per partner or assembly.
